In patent US20120107267A1 (Novo Nordisk, published 2012):

Molecular target: T1, His6-tagged hIL-21Rα extracellular domain (human, UniProt Q9HBE5 20-232)
T1 construct: extracellular domain; also called His6-tagged receptor EC domain; hIL-21Rα chain; not shown: His6 tag
Experiment: ALPHAScreen competition against biotinylated hIL-21 HA

T1 sequence (Q9HBE5 20-232): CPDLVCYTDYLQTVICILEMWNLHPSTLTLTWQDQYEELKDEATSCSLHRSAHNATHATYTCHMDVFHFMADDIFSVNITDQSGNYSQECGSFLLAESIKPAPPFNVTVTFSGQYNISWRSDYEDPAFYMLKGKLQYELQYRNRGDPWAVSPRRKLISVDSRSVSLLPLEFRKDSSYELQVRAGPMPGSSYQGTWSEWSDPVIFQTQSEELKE

B1: hIL-21 HA triple mutant [Q116D, H120D, L123D] (ligand)
chain: QGQDRHMIRMRQLIDIVDQLKNYVNDLVPEFLPAPEDVETNCEWSAFSCFQKAQLKSANTGNNERIINVSIKKLKRKPPSTNAGRRQKHRLTCPSCDSYEKKPPKEFLERFKSLLDKMIDQHDSSRTHGSEDSYPYDVPDYA
notes: Made by site-directed mutagenesis of the pcDNA3.1(+)/hIL-21HA plasmid and expressed in HEK293 cells
B1: binds.
